The source of these data is patent US20060052582A1 (published 2006).

The target of one assay is T1, FLAG Nercc (1-891) (human, UniProt Q8TD19 1-891).
T1 sequence: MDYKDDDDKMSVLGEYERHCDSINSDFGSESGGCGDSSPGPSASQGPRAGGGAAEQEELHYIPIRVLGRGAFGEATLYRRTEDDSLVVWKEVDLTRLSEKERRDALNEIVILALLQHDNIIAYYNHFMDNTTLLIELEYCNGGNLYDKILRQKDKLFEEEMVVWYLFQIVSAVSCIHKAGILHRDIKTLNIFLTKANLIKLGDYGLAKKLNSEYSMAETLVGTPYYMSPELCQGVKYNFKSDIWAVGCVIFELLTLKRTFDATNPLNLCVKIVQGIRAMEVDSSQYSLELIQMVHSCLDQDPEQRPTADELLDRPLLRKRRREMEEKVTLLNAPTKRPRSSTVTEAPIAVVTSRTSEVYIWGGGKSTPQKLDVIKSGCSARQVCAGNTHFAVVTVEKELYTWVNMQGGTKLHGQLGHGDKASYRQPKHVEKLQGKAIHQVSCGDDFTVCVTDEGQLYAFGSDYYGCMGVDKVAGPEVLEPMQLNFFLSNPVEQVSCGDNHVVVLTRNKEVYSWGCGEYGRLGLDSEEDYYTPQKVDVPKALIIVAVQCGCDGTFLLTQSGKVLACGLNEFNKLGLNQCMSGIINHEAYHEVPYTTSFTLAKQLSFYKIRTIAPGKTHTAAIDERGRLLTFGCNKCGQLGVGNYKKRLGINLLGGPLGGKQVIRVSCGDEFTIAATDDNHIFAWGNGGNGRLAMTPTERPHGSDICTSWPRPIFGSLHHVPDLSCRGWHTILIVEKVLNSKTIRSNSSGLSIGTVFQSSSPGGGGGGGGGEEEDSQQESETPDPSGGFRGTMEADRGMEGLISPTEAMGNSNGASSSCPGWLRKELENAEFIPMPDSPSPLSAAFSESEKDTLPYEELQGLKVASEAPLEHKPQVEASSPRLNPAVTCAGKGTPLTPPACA
As to the kind of experiment: binding test of co-expressed proteins; details not given.

Assay [1] addresses T2, FLAG Nercc (full-length wild type Nercc1 kinase with FLAG epitope tag) (human, UniProt Q8TD19 1-979).
T2 construct: Expressed in HEK293 cells; also called FLAG Nercc1; FLAG Nercc full length (FL)
T2 sequence: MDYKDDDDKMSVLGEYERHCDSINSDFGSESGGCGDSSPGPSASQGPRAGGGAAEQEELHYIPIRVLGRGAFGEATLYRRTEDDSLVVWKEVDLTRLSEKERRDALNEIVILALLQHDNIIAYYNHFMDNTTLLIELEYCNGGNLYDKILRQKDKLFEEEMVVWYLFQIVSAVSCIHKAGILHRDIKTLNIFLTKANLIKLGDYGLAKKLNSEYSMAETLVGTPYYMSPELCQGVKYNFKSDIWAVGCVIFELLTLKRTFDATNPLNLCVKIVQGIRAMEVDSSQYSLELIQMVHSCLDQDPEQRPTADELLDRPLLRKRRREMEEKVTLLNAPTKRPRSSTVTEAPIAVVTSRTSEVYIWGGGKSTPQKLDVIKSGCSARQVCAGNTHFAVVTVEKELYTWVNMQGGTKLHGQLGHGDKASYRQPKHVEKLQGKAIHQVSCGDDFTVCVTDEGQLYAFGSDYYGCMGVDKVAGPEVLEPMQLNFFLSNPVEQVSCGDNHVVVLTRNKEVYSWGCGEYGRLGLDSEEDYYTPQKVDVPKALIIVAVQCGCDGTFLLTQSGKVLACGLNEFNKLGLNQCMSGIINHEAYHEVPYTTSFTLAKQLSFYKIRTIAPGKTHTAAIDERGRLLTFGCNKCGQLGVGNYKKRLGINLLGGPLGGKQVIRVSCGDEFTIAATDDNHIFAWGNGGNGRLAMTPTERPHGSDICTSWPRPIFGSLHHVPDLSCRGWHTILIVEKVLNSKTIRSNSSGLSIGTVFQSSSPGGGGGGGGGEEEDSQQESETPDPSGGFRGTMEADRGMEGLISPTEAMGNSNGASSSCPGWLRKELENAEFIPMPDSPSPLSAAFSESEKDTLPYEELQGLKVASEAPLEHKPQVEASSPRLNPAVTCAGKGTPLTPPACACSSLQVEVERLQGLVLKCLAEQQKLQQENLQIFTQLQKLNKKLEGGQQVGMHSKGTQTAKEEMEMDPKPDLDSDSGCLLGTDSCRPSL
The assay is described as above.

The next assay has as its target HA wild type Ran (UniProt P62826 1-216). As to the kind of experiment: co-expression and co-immunoprecipitation. The text has this:
To address more directly the relative binding in vivo of Nercc to Ran-GDP compared to Ran-GTP, the cytoplasmic wild type Nercc and a nuclear form of full length Nercc (NLS-Nercc) were each co-expressed with wild type Ran or Ran mutants that bind GDP (T24N) or GTP (G19V) exclusively; either Ran or Nercc was immunoprecipitated and probed for the association with the other polypeptide. The full-length wild type Nercc bound co-expressed wild type Ran and Ran T24N to a greater extent than RanG19V.

B1: Nek6 (tag of the construct not stated) (enzyme)
chain: not shown
As for B1, the values for the binding result (in the assay with FLAG Nercc (1-891); in assay [1]; with HA wild type Ran) were “binds”, “binds” and “no binding”, respectively.
